Test results published in patent US20240100162A1 (published 2024).

T1: MAGE-B2 peptide on HLA-A*02:01 (human)
T1 peptide: GVYDGEEHSV

B1: TCR7 (TCR, V domains shown)
Valpha: GQNIDQPTEMTATEGAIVQINCTYQTSGFNGLFWYQQHAGEAPTFLSYNVLDGLEEKGRFSSFLSRSKGYSYLLLKELQMKDSASYLCAVRRLGGYQKVTFGTGTKLQVIP
Vbeta: GAGVSQSPSNKVTEKGKDVELRCDPISGHTALYWYRQRLGQGLEFLIYFQGNSAPDKSGLPSDRFSAERTGESVSTLTIQRTQQEDSAVYLCASSLVTGSSYNEQFFGPGTRLTVL
B2: TCR8 (TCR, V domains shown)
Valpha: AQKITQTQPGMFVQEKEAVTLDCTYDTSDQSYGLFWYKQPSSGEMIFLIYQGSYDEQNATEGRYSLNFQKARKSANLVISASQLGDSAMYFCAMRGPTSYGKLTFGQGTILTVHP
Vbeta: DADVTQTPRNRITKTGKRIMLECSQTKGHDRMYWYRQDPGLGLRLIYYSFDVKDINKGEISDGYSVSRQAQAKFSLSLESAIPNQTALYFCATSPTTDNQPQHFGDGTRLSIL
B3: TCR6 (TCR, V domains shown)
Valpha: AQTVTQSQPEMSVQEAETVTLSCTYDTSENNYYLFWYKQPPSRQMILVIRQEAYKQQNATENRFSVNFQKAAKSFSLKISDSQLGDTAMYFCAFFNAGKSTFGDGTTLTVKP
Vbeta: EAGVAQSPRYKIIEKRQSVAFWCNPISGHATLYWYQQILGQGPKLLIQFQNNGVVDDSQLPKDRFSAERLKGVDSTLKIQPAKLEDSAVYLCASTVGGGPYGYTFGSGTRLTVV
B4: TCR10 (TCR, V domains shown)
Valpha: AQSVAQPEDQVNVAEGNPLTVKCTYSVSGNPYLFWYVQYPNRGLQFLLKYITGDNLVKGSYGFEAEFNKSQTSFHLKKPSALVSDSALYFCAVRDNARLMFGDGTQLVVKP
Vbeta: SAVISQKPSRDICQRGTSLTIQCQVDSQVTMMFWYRQQPGQSLTLIATANQGSEATYESGFVIDKFPISRPNLTFSTLTVSNMSPEDSSIYLCSVGPSGHTGYTFGSGTRLTVV
B5: TCR11 (TCR, V domains shown)
Valpha: GEDVEQSLFLSVREGDSSVINCTYTDSSSTYLYWYKQEPGAGLQLLTYIFSNMDMKQDQRLTVLLNKKDKHLSLRIADTQTGDSAIYFCAEKSITSYDKVIFGPGTSLSVIP
Vbeta: DVKVTQSSRYLVKRTGEKVFLECVQDMDHENMFWYRQDPGLGLRLIYFSYDVKMKEKGDIPEGYSVSREKKERFSLILESASTNQTSMYLCASTRRGTYGYTFGSGTRLTVV
B6: TCR5 (TCR, V domains shown)
Valpha: KNEVEQSPQNLTAQEGEFITINCSYSVGISALHWLQQHPGGGIVSLFMLSSGKKKHGRLIATINIQEKHSSLHITASHPRDSAVYICAPGGNQFYFGTGTSLTVIP
Vbeta: DAGITQSPRYKITETGRQVTLMCHQTWSHSYMFWYRQDLGHGLRLIYYSAAADITDKGEVPDGYVVSRSKTENFPLTLESATRSQTSVYFCASSGSNQPQHFGDGTRLSIL

Target: T1, MAGE-B2 peptide on HLA-A*02:01
Assay: multimer staining
B1: recognises.
B2: recognises.
B3: recognises.
B4: recognises.
B5: recognises.
B6: recognises.
